Results from patent publication US20250049941A1, “ANTI-CD39 Antibody-Drug Conjugate And Use Thereof” (priority 2021, published 2025).

Target: T1, human CD39 naturally expressed on MOLP-8 cells (human, UniProt P49961 1-510)
T1 construct: whole, on cells; also called CD39 antigen; CD39 protein
T1 sequence (looked up): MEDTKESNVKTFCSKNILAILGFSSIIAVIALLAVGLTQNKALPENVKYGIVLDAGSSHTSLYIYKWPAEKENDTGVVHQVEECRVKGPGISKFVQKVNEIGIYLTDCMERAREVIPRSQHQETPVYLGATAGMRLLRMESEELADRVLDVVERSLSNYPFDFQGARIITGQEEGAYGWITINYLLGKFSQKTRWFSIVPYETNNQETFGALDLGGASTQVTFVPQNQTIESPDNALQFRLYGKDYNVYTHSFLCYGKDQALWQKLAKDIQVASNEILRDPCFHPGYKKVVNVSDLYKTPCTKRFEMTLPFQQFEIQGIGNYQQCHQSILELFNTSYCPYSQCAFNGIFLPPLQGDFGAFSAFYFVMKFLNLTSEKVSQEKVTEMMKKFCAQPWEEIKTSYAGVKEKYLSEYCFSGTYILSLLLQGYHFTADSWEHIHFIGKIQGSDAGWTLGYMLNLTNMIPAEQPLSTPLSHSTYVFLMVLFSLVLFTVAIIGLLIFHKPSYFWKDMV
Assay: flow cytometry on MOLP-8 cells, FITC goat anti-human H+L secondary antibody

binding result: binds
B1: humanized monoclonal antibody F314 (antibody, human IgG4 S228P, kappa, V domains shown)
VH: QVQLVQSGAEVKKPGASVKVSCKASGYTFTNYWMYWVRQRPGRGLEWIGRIAPSSGATKYNEKFKNRATLTVDTSISTAYMELSRLRSDDTAVYYCARSGIYYDYDWFFDVWGQGTTVTVSS
VL: DIQMTQSPSSLSASVGDRVTITCKASQDINKYIGWYQQKPGKAPKLLIHYTSTLQPGVPSRFSGSGSGRDYTFTISSLQPEDIATYYCLQYHALLFTFGQGTKLEIKR
notes: Expressed in CHO-S cells; also called F314 monoclonal antibody; naked antibody
